Where “and” joins values, the source holds several entries; their conditions need not be identical. Identical values can stand only once.
Tests used:
[1] = target: ERβ (Homo sapiens, UniProt Q92731); experiment: Phage ELISA / fingerprint on ER immobilized on biotinylated ERE (Examples 2.3-2.5); assay type: binding; design: purchased PanVera Corporation, Madison, WI; key: semiquantitative scale of 0 to 7+; 1+: semiquantitative scale of 0 to 7+; 2+: semiquantitative scale of 0 to 7+; 3+: semiquantitative scale of 0 to 7+; 4+: semiquantitative scale of 0 to 7+; 5+: semiquantitative scale of 0 to 7+; 6+: semiquantitative scale of 0 to 7+; semiquantitative scale of 0 to 7+; conditions: for binding activity, ERβ and Estradiol: ERβ and Estradiol (1 µM); for binding activity, ERβ and tamoxifen: ERβ and tamoxifen (4-OH tamoxifen, 1 µM)
Sequence of ERβ (Q92731 whole entry): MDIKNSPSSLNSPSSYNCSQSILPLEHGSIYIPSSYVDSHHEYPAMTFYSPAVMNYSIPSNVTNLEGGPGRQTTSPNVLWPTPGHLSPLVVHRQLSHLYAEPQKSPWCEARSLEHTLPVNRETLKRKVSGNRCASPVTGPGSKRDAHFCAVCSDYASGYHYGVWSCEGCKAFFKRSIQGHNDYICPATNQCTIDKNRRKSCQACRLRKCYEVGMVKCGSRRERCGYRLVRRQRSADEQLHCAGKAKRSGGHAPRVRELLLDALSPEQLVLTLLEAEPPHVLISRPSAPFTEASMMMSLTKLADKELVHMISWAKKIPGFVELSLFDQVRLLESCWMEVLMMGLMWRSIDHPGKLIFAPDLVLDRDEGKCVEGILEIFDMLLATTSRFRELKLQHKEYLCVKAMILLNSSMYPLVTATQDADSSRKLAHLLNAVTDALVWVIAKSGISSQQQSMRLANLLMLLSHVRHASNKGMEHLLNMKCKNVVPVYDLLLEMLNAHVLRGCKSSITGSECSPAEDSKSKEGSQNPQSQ

[2] = target: T1, ERα (Homo sapiens, UniProt P03372); experiment: as above; assay type: binding; design: purchased PanVera Corporation, Madison, WI; key to binding activity, ERα and buffer / binding activity, ERα and estradiol / binding activity, ERα and tamoxifen / binding of peptide, Class Specific Fingerprint on ERα: semiquantitative scale of 0 to 7+; 1+: semiquantitative scale of 0 to 7+; 2+: semiquantitative scale of 0 to 7+; 3+: semiquantitative scale of 0 to 7+; 4+: semiquantitative scale of 0 to 7+; 5+: semiquantitative scale of 0 to 7+; 6+: semiquantitative scale of 0 to 7+; semiquantitative scale of 0 to 7+; conditions: for binding activity, ERα and estradiol: ERα and estradiol (1 µM); for binding activity, ERα and tamoxifen: ERα and tamoxifen (4-OH tamoxifen, 1 µM)
T1 sequence (P03372 1-595): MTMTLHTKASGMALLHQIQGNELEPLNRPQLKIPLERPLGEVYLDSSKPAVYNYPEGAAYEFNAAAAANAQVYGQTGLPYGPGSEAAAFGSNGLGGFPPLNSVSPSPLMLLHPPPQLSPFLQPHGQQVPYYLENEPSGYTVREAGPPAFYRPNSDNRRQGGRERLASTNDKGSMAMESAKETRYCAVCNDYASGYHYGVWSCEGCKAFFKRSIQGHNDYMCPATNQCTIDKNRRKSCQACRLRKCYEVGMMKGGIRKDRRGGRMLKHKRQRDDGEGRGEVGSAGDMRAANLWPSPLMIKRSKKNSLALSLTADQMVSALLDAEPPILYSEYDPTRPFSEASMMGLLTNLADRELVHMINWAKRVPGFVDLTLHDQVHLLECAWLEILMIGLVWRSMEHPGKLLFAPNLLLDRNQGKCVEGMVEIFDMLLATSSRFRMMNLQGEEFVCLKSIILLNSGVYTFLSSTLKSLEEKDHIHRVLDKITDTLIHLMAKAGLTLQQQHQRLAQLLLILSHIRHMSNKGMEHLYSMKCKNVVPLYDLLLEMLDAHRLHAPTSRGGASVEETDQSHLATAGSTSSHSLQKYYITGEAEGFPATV

[3] = 4-OH Tamoxifen present during binding
[4] = 16a-OH Estrone present during binding
[5] = Clomiphene present during binding
[6] = Estradiol present during binding
[7] = ICI 182,780 present during binding
[8] = Nafoxidine present during binding
[9] = Premarin present during binding
[10] = Progesterone present during binding
[11] = Raloxifene present during binding

## HSWLGPWRLSSIDLGG [Peptide 24b-β]
[1]
  binding activity, ERβ and Estradiol: 7+
  binding activity, ERβ and buffer: 7+
  binding activity, ERβ and tamoxifen: 7+
[2]
  binding activity, ERα and buffer: 2+
  binding activity, ERα and estradiol: 2+
  binding activity, ERα and tamoxifen: 3+

## HSYSSHPLLLSYLWGG [Peptide 23b-β]
[1]
  binding activity, ERβ and Estradiol: 7+ and 6+
  binding activity, ERβ and buffer: 7+
  binding activity, ERβ and tamoxifen: 3+ and 7+
[2]
  binding activity, ERα and buffer: 3+
  binding activity, ERα and estradiol: 6+ and 3+
  binding activity, ERα and tamoxifen: 3+

## S A A P R T I S H Y L M G G (SAAPRTISHYLMGG) [#48 ER]
[1]; [3]
  binding of peptide, Class Specific Fingerprint on ERβ: 1+
[1]; [4]
  binding of peptide, Class Specific Fingerprint on ERβ: 3+
[1]; [5]
  binding of peptide, Class Specific Fingerprint on ERβ: 1+
[1]; DES present during binding
  binding of peptide, Class Specific Fingerprint on ERβ: 3+
[1]; [6]
  binding of peptide, Class Specific Fingerprint on ERβ: 2+
[1]; Estriol present during binding
  binding of peptide, Class Specific Fingerprint on ERβ: 6+
[1]; [7]
  binding of peptide, Class Specific Fingerprint on ERβ: 2+
[1]; [8]
  binding of peptide, Class Specific Fingerprint on ERβ: 4+
[1]; [9]
  binding of peptide, Class Specific Fingerprint on ERβ: 4+
[1]; [10]
  binding of peptide, Class Specific Fingerprint on ERβ: 6+
[1]; [11]
  binding of peptide, Class Specific Fingerprint on ERβ: 4+
[1]; buffer present during binding
  binding of peptide, Class Specific Fingerprint on ERβ: 7+
[2]; [3]
  binding of peptide, Class Specific Fingerprint on ERα: 1+
[2]; [4]
  binding of peptide, Class Specific Fingerprint on ERα: 2+
[2]; [5]
  binding of peptide, Class Specific Fingerprint on ERα: 1+
[2]; DES present during binding
  binding of peptide, Class Specific Fingerprint on ERα: 2+
[2]; [6]
  binding of peptide, Class Specific Fingerprint on ERα: 2+
[2]; Estriol present during binding
  binding of peptide, Class Specific Fingerprint on ERα: 4+
[2]; [7]
  binding of peptide, Class Specific Fingerprint on ERα: 1+
[2]; [8]
  binding of peptide, Class Specific Fingerprint on ERα: 1+
[2]; [9]
  binding of peptide, Class Specific Fingerprint on ERα: 2+
[2]; [10]
  binding of peptide, Class Specific Fingerprint on ERα: 6+
[2]; [11]
  binding of peptide, Class Specific Fingerprint on ERα: 1+
[2]; buffer present during binding
  binding of peptide, Class Specific Fingerprint on ERα: 7+

## S R T W E S P L G T W E W S R (SRTWESPLGTWEWSR) [#13 ER]
[2]; [3]
  binding of peptide, Class Specific Fingerprint on ERα: 6+
[2]; [4]
  binding of peptide, Class Specific Fingerprint on ERα: 2+
[2]; [5]
  binding of peptide, Class Specific Fingerprint on ERα: 5+
[2]; DES present during binding
  binding of peptide, Class Specific Fingerprint on ERα: 3+
[2]; [6]
  binding of peptide, Class Specific Fingerprint on ERα: 2+
[2]; Estriol present during binding
  binding of peptide, Class Specific Fingerprint on ERα: 2+
[2]; [7]
  binding of peptide, Class Specific Fingerprint on ERα: 2+
[2]; [8]
  binding of peptide, Class Specific Fingerprint on ERα: 2+
[2]; [9]
  binding of peptide, Class Specific Fingerprint on ERα: 2+
[2]; [10]
  binding of peptide, Class Specific Fingerprint on ERα: 4+
[2]; [11]
  binding of peptide, Class Specific Fingerprint on ERα: 2+
[2]; buffer present during binding
  binding of peptide, Class Specific Fingerprint on ERα: 5+

## SRDWRSGFLYELLSR [Peptide 4E-β]
[1]
  binding activity, ERβ and Estradiol: 7+
  binding activity, ERβ and buffer: 5+
  binding activity, ERβ and tamoxifen: 3+
[2]
  binding activity, ERα and buffer: 6+
  binding activity, ERα and estradiol: 5+
  binding activity, ERα and tamoxifen: 6+

## SRECVGGWCLAELSR [Peptide 18b-β]
[1]
  binding activity, ERβ and Estradiol: 7+
  binding activity, ERβ and buffer: 7+
  binding activity, ERβ and tamoxifen: 7+
[2]
  binding activity, ERα and buffer: 2+
  binding activity, ERα and estradiol: 2+
  binding activity, ERα and tamoxifen: 2+

## SREGLLMRLLIGDSR [Peptide 14E-β]
[1]
  binding activity, ERβ and Estradiol: 7+
  binding activity, ERβ and buffer: 5+
  binding activity, ERβ and tamoxifen: 2+
[2]
  binding activity, ERα and buffer: 5+
  binding activity, ERα and estradiol: 7+
  binding activity, ERα and tamoxifen: 5+

## SREGWMGPWRLADSR [Peptide 12t-β]
[1]
  binding activity, ERβ and Estradiol: 7+
  binding activity, ERβ and buffer: 7+
  binding activity, ERβ and tamoxifen: 7+
[2]
  binding activity, ERα and estradiol: 1+
  binding activity, ERα and tamoxifen: 1+

## SREWEDGFGGRWLSR [Peptide 4t-β]
[1]
  binding activity, ERβ and Estradiol: 7+
  binding activity, ERβ and buffer: 7+
  binding activity, ERβ and tamoxifen: 7+
[2]
  binding activity, ERα and buffer: 2+
  binding activity, ERα and estradiol: 2+
  binding activity, ERα and tamoxifen: 3+

## SRHGILWDLLQGDSR [Peptide 2E-β]
[1]
  binding activity, ERβ and Estradiol: 7+
  binding activity, ERβ and buffer: 4+
  binding activity, ERβ and tamoxifen: 2+
[2]
  binding activity, ERα and buffer: 6+
  binding activity, ERα and estradiol: 7+
  binding activity, ERα and tamoxifen: 5+

## SRLEDLLRGDSKPQSR [Peptide 7E-β]
[1]
  binding activity, ERβ and Estradiol: 6+
  binding activity, ERβ and buffer: 5+
  binding activity, ERβ and tamoxifen: 1+
[2]
  binding activity, ERα and buffer: 4+
  binding activity, ERα and estradiol: 6+
  binding activity, ERα and tamoxifen: 3+

## SRLEELLRVGVLTSR [Peptide 6E-β]
[1]
  binding activity, ERβ and Estradiol: 7+
  binding activity, ERβ and buffer: 3+
  binding activity, ERβ and tamoxifen: 1+
[2]
  binding activity, ERα and buffer: 3+
  binding activity, ERα and estradiol: 5+
  binding activity, ERα and tamoxifen: 3+
